Positions of bridges follow the written chain, without caps; N, C: chain ends. Non-standard residues stand in square brackets, D forms with d. Primed or numbered codes have the meaning given here. No end group written: not given here. T(Sa)″ = not defined here

Experiment in all cases: on-bead capture from E. coli membrane protein extract; tryptic digest, MALDI peptide mass fingerprint
The target of assay [1] is isopropyl malate dehydrogenase (Escherichia coli, UniProt P30125 2-363).
The target of assay [2] is T1, Mannose-1-phosphate guanyl transferase (Escherichia coli, UniProt P24174 1-478).
T1 sequence (looked up): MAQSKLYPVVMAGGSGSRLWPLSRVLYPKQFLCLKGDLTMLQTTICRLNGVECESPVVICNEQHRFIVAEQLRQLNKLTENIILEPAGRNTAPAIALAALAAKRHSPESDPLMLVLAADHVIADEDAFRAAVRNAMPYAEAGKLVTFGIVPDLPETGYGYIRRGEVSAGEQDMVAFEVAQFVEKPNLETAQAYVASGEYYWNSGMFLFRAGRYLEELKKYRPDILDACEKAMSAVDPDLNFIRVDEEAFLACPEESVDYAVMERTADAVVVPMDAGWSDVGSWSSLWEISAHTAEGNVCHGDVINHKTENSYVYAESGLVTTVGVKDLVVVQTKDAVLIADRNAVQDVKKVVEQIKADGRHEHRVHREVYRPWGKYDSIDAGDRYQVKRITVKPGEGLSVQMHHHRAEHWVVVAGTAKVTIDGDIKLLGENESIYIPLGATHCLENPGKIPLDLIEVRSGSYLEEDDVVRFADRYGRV

Assay [3] deals with T2, Biotin synthetase (Escherichia coli, UniProt P12996 1-346).
T2 sequence (looked up): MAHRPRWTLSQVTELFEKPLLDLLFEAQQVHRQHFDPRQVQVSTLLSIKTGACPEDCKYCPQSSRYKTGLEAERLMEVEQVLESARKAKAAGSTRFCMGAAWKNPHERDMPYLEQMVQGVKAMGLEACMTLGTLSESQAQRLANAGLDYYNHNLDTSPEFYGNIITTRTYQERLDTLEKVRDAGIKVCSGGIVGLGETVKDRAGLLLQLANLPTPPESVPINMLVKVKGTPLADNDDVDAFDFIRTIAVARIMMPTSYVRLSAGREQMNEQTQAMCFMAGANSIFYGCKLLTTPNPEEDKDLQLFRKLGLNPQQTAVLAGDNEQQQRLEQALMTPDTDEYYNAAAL

Assay [4] deals with UDP-glucose dehydrogenase (Escherichia coli, UniProt P76373 1-388).
In assay [5] the target is T3, glutamine tRNA synthetase (Escherichia coli, UniProt P00962 2-554).
T3 sequence (looked up): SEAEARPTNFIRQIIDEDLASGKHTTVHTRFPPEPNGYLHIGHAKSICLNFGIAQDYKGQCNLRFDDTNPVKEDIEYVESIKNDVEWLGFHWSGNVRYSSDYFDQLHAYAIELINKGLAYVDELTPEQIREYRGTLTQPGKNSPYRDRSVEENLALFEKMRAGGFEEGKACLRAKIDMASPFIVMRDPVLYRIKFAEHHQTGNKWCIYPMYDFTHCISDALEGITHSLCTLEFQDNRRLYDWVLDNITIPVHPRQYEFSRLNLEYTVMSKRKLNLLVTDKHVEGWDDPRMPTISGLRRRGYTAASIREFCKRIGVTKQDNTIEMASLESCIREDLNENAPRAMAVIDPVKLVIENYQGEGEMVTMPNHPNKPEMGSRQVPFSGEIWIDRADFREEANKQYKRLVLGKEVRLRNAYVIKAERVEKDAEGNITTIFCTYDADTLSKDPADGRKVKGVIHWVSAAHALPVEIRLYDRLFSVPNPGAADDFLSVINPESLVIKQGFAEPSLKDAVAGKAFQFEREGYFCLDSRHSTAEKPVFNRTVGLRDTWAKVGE

The target in assay [6] is T4, NAD-dependent 7-alpha-hydroxysteriod dehydrogenase (Escherichia coli, UniProt P0AET8 1-255).
T4 sequence (looked up): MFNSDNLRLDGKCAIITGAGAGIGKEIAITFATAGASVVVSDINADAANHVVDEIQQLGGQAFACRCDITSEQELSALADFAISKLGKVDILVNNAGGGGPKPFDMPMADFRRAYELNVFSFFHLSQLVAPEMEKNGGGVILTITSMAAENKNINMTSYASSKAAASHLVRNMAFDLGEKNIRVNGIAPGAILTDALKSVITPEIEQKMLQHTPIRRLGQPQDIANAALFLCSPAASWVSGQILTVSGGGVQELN

The target of assay [7] is T5, citrate synthetase (Escherichia coli, UniProt P0ABH7 1-427).
T5 sequence (looked up): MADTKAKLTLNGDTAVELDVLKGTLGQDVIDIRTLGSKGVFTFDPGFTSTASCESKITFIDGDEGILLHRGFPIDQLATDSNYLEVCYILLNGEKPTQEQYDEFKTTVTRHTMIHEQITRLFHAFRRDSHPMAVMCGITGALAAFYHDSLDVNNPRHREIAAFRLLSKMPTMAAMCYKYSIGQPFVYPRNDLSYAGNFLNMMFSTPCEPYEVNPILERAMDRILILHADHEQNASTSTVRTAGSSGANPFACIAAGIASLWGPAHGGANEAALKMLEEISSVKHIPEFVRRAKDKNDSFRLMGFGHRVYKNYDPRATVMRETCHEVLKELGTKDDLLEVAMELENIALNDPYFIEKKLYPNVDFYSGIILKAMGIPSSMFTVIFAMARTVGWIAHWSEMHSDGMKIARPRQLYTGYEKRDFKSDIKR

Chain of isopropyl malate dehydrogenase (P30125 2-363 limits assumed): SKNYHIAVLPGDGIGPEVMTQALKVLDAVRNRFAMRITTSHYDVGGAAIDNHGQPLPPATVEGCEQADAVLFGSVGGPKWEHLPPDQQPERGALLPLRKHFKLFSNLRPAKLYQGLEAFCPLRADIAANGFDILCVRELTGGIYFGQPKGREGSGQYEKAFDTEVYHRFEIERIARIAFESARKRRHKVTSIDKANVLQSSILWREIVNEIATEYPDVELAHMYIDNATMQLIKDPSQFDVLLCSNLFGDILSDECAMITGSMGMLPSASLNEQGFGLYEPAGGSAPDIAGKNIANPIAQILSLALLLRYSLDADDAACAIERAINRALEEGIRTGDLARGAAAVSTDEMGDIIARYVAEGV

B1: T(Sa)-H-W-H-I (peptide)
peptide: [T(Sa)″]HWHI
modifications: lactam N-1; reading uncertain; also: printed as T(Sa)-H-W-H-I
notes: Library 2 ligand, resynthesised on PEGA4000 resin bead
In the case of B1, the binding result in assay [1] and in assay [2] was “binds” in each case.

B2: T(Sa)-Y-S-M-P (peptide)
peptide: [T(Sa)″]YSMP
modifications: lactam N-1; reading uncertain; also: printed as T(Sa)-Y-S-M-P
notes: as for B1
As to B2, the binding result in assay [3] and in assay [4] was “binds” each time.

B3: T(Sa)-G-V-F-L (peptide)
peptide: [T(Sa)″]GVFL
modifications: lactam N-1; reading uncertain; also: printed as T(Sa)-G-V-F-L
notes: as for B1
With B3, in assay [5], the binding result is recorded as “binds”.

B4: T(Sa)-L-S-W-W (peptide)
peptide: [T(Sa)″]LSWW
modifications: lactam N-1; reading uncertain; also: printed as T(Sa)-L-S-W-W
notes: as for B1
With B4, the binding result in assay [6] and in assay [7] was “binds” in each case.

(Values after US20040142379A1 (CARLSBERG RESEARCH LABORATORY, published 2004).)
